± gives the standard deviation.
Assay: protein stability index of a GFP-peptide fusion (GPS, HEK-293T) (PSI 1-6); higher = more stable
Details: c terminus: a fixed tail appended
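Also: 24-mer peptide tiles fused after GFP, lentivirally expressed, FACS-sorted into six equal bins by GFP/DsRed ratio, decoded by Illumina sequencing, PSI is the read-weighted mean bin number.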

| Sequence | protein stability index (treatment: DMSO) | protein stability index (treatment: MLN4924 1 uM, 8 h) |
| --- | --- | --- |
| SESGADTISVNQTRVNLSSDTEST [DLC1] | 5.33 ± 0.4 | 5.3 ± 0.58 |
| QVLYEWEQGFSQSFTQEQVADIDG [CTNNB1] | 4.24 ± 0.3 | 4.09 ± 0.46 |
| SLRRRGASAAARLGCNRQSWCLKR [TRIM14] | 3.28 ± 0.28 | 3.16 ± 0.58 |
| FPFQAMVQFHRHHGQEGSILVTKV [GMPPB] | 2.22 ± 0.37 | 2.07 ± 0.15 |
| ERKPAATARLSRRGTSLSPPPESS [KISS1] | 5.16 ± 0.17 | 5.26 ± 0.17 |
| PIMAKEGQLYAMELQGFWMDIGQP [GMPPB] | 2.23 ± 0.25 | 2.14 ± 0.31 |
| CRYATQLQQIQGLIGGLEAQLSEL [KRT15] | 2.23 ± 0.066 | 2.33 ± 0.18 |
| LQKLSALLMTADILAETGIRKTVK [ELOA2] | 2.48 ± 0.64 | 2.34 ± 0.45 |
| QLKEEMARHLREYQELLNVKMALD [PRPH] | 3.32 ± 0.22 | 3.5 ± 0.36 |
| VKMLGSPVDSVLFYAITTLHNLLL [CTNNB1] | 2.47 ± 0.59 | 2.48 ± 0.6 |
| PYKCVQPDCGKAFVSRYKLMRHMA [PLAGL1] | 2.23 ± 0.31 | 2.08 ± 0.21 |
| PLFMAAFDGRHSQTLKAMVQAWPF [PRAME] | 2.16 ± 0.13 | 2.07 ± 0.31 |
| MTGRVCRGCGGTDIELDAARGDAV [BRF1] | 3.65 ± 0.12 | 3.77 ± 0.18 |
| KVAKLLGYSTHADFVLEMNTAKST [NLN] | 1.9 ± 0.33 | 2.35 ± 0.24 |
| EEAVILLEDLERELDEPQHEMVAH [ZSCAN9] | 4.14 ± 0.6 | 4.2 ± 0.34 |
| NSLDTTSWAWRGPGVLKVLWLTAS [LPCAT4] | 2.43 ± 0.62 | 2.25 ± 0.47 |
| RDVKPENFLIGRQGNKKEHVIHII [CSNK1G1] | 2.26 ± 0.42 | 2.33 ± 0.21 |
| RSLQDGTREGFGHSTSLKVPLARS [LCOR] | 4.38 ± 0.27 | 4.37 ± 0.12 |
| LGAVAVFAVGYIKISWSTWGEMTL [SLC19A2] | 2.97 ± 0.68 | 2.97 ± 0.73 |
| LSFLDYRDLINCCYVSRRLSQLSS [FBXO3] | 2.59 ± 0.18 | 2.14 ± 0.48 |
| SPPEASPGPPAAPRARRRLGSGPD [PWWP2B] | 5.22 ± 0.39 | 5.47 ± 0.31 |
| MTEKQQEEAEWESINVLLMMHGLK [CEP70] | 2.62 ± 0.27 | 2.73 ± 0.22 |

| Sequence | protein stability index (treatment: DMSO) | protein stability index (treatment: MLN4924 1 uM, 8 h) |
| --- | --- | --- |
| YGFYDECLRKYGNANVWKYFTDLF [PPP2CA] | 2.5 ± 0.21 | 2.67 ± 0.38 |
| NMCLVATGGADAYYEMGIHCWDVA [IMPA1] | 2.13 ± 0.23 | 2.3 ± 0.18 |
| DGLLGDNQIMPKAGLLIIVLAIIA [MAGEA3] | 3.11 ± 0.91 | 2.46 ± 0.34 |
| PGRSSVASPRRLSNVSSSGSINLL [MAP2] | 3.63 ± 0.16 | 3.48 ± 0.16 |
| YKCSWCGKSFSQNTNLHTHQRTHT [ZNF75A] | 4.65 ± 0.45 | 4.29 ± 0.54 |
| VQRVMAQALGIPATECEFVGSLPV [LPCAT4] | 2.78 ± 0.25 | 2.76 ± 0.3 |
| EDSSRDIREALHELLCCTNVSTKE [INTS4] | 3.75 ± 0.31 | 3.98 ± 0.25 |
| SAPATAKENAAAPSPVRAPAPSPA [PALM] | 5.18 ± 0.21 | 5.34 ± 0.17 |
| TQHLPRECLPENLGGYVKIDLATW [PTPN9] | 2.34 ± 0.4 | 2.31 ± 0.41 |
| VDCTEIFGGNPRFLSLHRAHLGEE [ZNF263] | 3.11 ± 0.4 | 3.24 ± 0.25 |
| GMLKEGVRLDRVRGGRQKYKRRID [ESRRG] | 4.19 ± 0.14 | 4.15 ± 0.33 |
| TASDSESRAESAPLPVSADDTPEV [CDS2] | 5.48 ± 0.45 | 5.36 ± 0.38 |
| GSSRPCLDFLQEVTRQPRNLQDLC [ASB7] | 3.9 ± 0.31 | 3.97 ± 0.23 |
| PPQPGCPAFIIVKLSPLRDRLVVT [ZSWIM9] | 2.93 ± 1 | 2.99 ± 0.94 |
| SRTQEPSLGKQKVFIIRKSLLDEL [SOAT2] | 2.04 ± 0.31 | 2.23 ± 0.34 |
| CIPATVRSSFANQGEICLCTSRIF [ALDH8A1] | 2.28 ± 0.52 | 2.38 ± 0.21 |
| KDSHDPLPSWAELLRPKYRAPQGC [PBXIP1] | 3.01 ± 0.37 | 3.19 ± 0.2 |
| LLRTARVRRECWFLPTALLCAYGF [SLC19A2] | 2.54 ± 0.8 | 2.54 ± 0.43 |
| CAKLDSCALGDHGCEHSCVSSEDS [MATN2] | 4.91 ± 0.35 | 4.99 ± 0.38 |
| CFEASDCKESSPMPVICGPEENYP [NANOGP8] | 3.98 ± 0.32 | 4.24 ± 0.26 |
| IQDNGTGIRKEDLDIVCERFTTSK [MLH1] | 4.17 ± 0.2 | 4.46 ± 0.33 |
| LSASSPRMLHRSTQTTNDGVCQSM [ZMYND11] | 4 ± 0.24 | 4.34 ± 0.18 |

| Sequence | protein stability index (treatment: DMSO) | protein stability index (treatment: MLN4924 1 uM, 8 h) |
| --- | --- | --- |
| ENDGFVFKMPWKPTHPSSTHALAE [CDC25B] | 3.55 ± 0.44 | 3.36 ± 0.16 |
| PPATLGEGSADTEDRKLPAPGADV [EHMT1] | 5.47 ± 0.3 | 5.58 ± 0.13 |
| SRRVIAANNRILAERIAKEIQVIP [IMPA1] | 2.46 ± 0.34 | 2.69 ± 0.12 |
| GYNLTSISESMAACTRSLLGDPPP [HDAC6] | 3.52 ± 0.38 | 3.4 ± 0.2 |
| YLYFLFCPTLIYRETYPRTPYVRW [SOAT2] | 2.67 ± 0.76 | 2.58 ± 0.29 |
| PVLSGAELEKAHLALIDYLTQKRS [VPS39] | 3.37 ± 0.26 | 3.38 ± 0.27 |
| EDTTEEAQRRRMDEISDHAKVLTL [EIF5] | 5.24 ± 0.11 | 5.18 ± 0.2 |
| LRQQQDEAYLASLRADQEKERKKR [FAF2] | 4.36 ± 0.57 | 4.53 ± 0.4 |
| TKGHPRAVSQPFRLSSSLQGSAVT [CDC14A] | 3.49 ± 0.41 | 3.54 ± 0.28 |
| NSGLINHQRIHTGEKPYECVQCGK [ZNF24] | 3.92 ± 0.17 | 3.99 ± 0.31 |
| RQVALGAMEAVRVNPLHVDSTWLL [SLC25A39] | 2.53 ± 0.27 | 2.52 ± 0.069 |
| CTRFTDEYQLYEDIGKGAFSVVRR [CAMK2B] | 2.84 ± 0.35 | 2.85 ± 0.54 |
| MTDGILGKAATMEIPIHGNGEARQ [ARFIP2] | 4.58 ± 0.16 | 4.57 ± 0.13 |
| FGIVEIDGMLYILGGEDGEKELIS [GAN] | 2.35 ± 0.25 | 2.31 ± 0.29 |
| VSKGAESSRSSEESSSDSGSSDSE [BRD3] | 5.61 ± 0.24 | 5.6 ± 0.41 |
| HMESRMVTETEETQEKKAESKEPI [SDE2] | 5.48 ± 0.17 | 5.46 ± 0.47 |
| VGSDEEDDSGKDKKKKTKKIKEKY [HSP90AB1] | 5.31 ± 0.47 | 5.32 ± 0.42 |
| VGQQVHNLLLTYLIVTSLLLLPGL [ARL6IP1] | 3.27 ± 0.26 | 3.46 ± 0.57 |
| TLDVYNPFETREPPPAYEPPAPAP [SCAMP3] | 4.51 ± 0.18 | 4.61 ± 0.2 |
| SRTSCRLSGGLGAGSCRLGSAGGL [KRT17] | 2.33 ± 0.44 | 2.23 ± 0.36 |
| TVFYIPEDHKPGTFPKALTNGSFS [DLC1] | 2.86 ± 0.14 | 3.11 ± 0.26 |
